Reference: article PMC3779476 (Nature, 2013)

Target: the molecule itself
Assay: native gel or EMSA

B1: LamB (natural protein)
chain: VDFHGYARSGIGWTGSGGEQQCFQTTGAQSKYRLGNECETYAELKLGQEVWKEGDKSFYFDTNVAYSVAQQNDWEATDPAFREANVQGKNLIEWLPGSTIWAGKRFYQRHDVHMIDFYYWDISGPGAGLENIDVGFGKLSLAATRSSEAGGSSSFASNNIYDYTNETANDVFDVRLAQMEINPGGTLELGVDYGRANLRDNYRLVDGASKDGWLFTAEHTQSVLKGFNKFVVQYATDSMTSQGKGLSQGSGVAFDNEKFAYNINNNGHMLRILDHGAISMGDNWDMMYVGMYQDINWDNDNGTKWWTVGIRPMYKWTPIMSTVMEIGYDNVESQRTGDKNNQYKITLAQQWQAGDSIWSRPAIRVFATYAKWDEKWGYDYTGNADNNANFGKAVPADFNGGSFGRGDSDEWTFGAQMEIWW
In the case of B1, the “stoichiometry N” value is reported as 3.
